Assay results reported in US20090263375.

Experiments:
[1] = target: T1, FLAG-Star-PAP ΔPRR ½ (lacking amino acids 223-274)
T1 chain: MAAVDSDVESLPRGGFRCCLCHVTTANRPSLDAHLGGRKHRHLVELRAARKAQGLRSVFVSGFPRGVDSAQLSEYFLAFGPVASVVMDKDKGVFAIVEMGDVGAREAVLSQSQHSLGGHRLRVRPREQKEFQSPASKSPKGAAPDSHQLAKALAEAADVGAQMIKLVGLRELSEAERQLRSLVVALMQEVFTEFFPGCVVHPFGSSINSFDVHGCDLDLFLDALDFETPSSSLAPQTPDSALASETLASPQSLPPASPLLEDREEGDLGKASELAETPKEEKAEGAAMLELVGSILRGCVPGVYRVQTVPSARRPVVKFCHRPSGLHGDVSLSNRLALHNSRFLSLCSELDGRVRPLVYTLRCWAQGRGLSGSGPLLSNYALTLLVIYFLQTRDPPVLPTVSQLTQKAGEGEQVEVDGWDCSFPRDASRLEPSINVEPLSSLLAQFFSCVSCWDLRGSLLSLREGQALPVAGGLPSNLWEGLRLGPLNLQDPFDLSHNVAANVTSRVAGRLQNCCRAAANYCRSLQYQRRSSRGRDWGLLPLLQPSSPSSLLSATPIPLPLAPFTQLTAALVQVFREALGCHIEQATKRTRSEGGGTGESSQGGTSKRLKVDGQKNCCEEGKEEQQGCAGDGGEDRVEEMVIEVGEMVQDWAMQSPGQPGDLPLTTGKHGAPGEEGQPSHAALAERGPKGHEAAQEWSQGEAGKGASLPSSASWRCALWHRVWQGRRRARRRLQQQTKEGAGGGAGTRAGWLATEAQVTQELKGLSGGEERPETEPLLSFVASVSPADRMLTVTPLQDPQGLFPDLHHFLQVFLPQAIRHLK

[2] = target: T2, Flag-Star-PAP (full length)
T2 chain: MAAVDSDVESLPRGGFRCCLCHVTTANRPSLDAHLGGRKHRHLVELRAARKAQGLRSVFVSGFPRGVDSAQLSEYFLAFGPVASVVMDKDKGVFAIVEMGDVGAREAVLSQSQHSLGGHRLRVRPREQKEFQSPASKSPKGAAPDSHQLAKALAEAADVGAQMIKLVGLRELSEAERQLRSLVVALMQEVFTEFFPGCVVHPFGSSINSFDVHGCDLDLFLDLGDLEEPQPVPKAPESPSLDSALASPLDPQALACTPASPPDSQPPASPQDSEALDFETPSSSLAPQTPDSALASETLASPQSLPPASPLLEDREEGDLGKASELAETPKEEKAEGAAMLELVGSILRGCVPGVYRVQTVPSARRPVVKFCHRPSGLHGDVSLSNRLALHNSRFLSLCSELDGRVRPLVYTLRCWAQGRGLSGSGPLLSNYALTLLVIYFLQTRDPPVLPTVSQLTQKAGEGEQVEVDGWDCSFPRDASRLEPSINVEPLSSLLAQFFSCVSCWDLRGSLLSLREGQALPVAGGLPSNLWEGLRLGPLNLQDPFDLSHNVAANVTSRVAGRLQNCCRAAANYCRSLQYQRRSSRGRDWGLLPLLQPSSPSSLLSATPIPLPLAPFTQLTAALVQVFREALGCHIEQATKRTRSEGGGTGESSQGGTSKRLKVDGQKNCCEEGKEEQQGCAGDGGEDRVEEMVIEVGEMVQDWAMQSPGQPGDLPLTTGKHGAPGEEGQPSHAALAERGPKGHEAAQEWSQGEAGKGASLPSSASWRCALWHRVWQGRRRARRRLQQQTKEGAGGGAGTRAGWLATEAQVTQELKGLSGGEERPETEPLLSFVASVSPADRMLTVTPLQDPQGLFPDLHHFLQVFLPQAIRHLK

B1: FLAG-CKIα (wild type) (protein)
chain: MASSSGSKAEFIVGGKYKLVRKIGSGSFGDIYLAINITNGEEVAVKLESQKARHPQLLYESKLYKILQGGVGIPHIRWYGQGKDYNVLVMDLLGPSLEDLFNFCSRRFTMKTVLMLADQMISRIEYVHTKNFIHRDIKPDNFLMGIGRHCNKLFLIDFGLAKKYRDNRTRQHIPYREDKNLTGTARYASINAHLGIEQSRRDDMESLGYVLMYFNRTSLPWQGLKAATKKQKYEKISEKKMSTPVEVLCKGFPAEFAMYLNYCRGLRFEEAPDYMYLRQLFRILFRTLNHQYDYTFDWTMLKQKAAQQAASSSGQGQQAQTPTGF
[1]
  in vitro kinase assay: phosphorylation of FLAG-Star-PAP truncation and deletion mutants: CKIα was able to phosphorylate all truncation mutants except those which lacked the first half of the proline rich region (ΔPRR ½, amino acids 223-274)
[2]
  in vitro kinase assay: phosphorylation of heat inactivated FLAG-Star-PAP: Purified FLAG-CKIα was able to directly phosphorylate heat inactivated Star-PAP
